Tested on: Escherichia coli TOP10
Assay: shrunken log2 fold change of peptide-encoding DNA abundance (4.5 h post-induction vs induction); higher = less antimicrobial activity (less host growth inhibition)
Settings: time post-induction: 4.5 h; library: site-saturation at positions 5, 18, 19, 20
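Note: peptides expressed intracellularly from a pBAD plasmid library in pooled LB shake-flask culture, induced with 0.3% L-arabinose, DNA abundance read by NGS, three biological replicates, DESeq2 with apeglm shrinkage.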

Row | Sequence | shrunken log2 fold change
1 | RRIRWRPPRLPRPRPRPNHVPRP | -0.651
2 | RRIRHRPPRLPRPRPRPCFHPRP | -0.48
3 | RRIRVRPPRLPRPRPRPRLMPRP | -0.0256
4 | RRIRTRPPRLPRPRPRPGWQPRP | 0.174
5 | RRIRERPPRLPRPRPRPTDWPRP | -0.145
6 | RRIRSRPPRLPRPRPRPKWLPRP | 0.104
7 | RRIRVRPPRLPRPRPRPNFMPRP | 0.0796
8 | RRIRTRPPRLPRPRPRPFRAPRP | -0.597
9 | RRIRSRPPRLPRPRPRPPKFPRP | -0.479
10 | RRIRYRPPRLPRPRPRPAGSPRP | 0.0105
11 | RRIRKRPPRLPRPRPRPITWPRP | 0.0399
12 | RRIRWRPPRLPRPRPRPNQHPRP | -0.071
13 | RRIRTRPPRLPRPRPRPVWSPRP | -0.00993
14 | RRIRGRPPRLPRPRPRPYRWPRP | 0.191
15 | RRIRCRPPRLPRPRPRPSQPPRP | 0.075
16 | RRIRCRPPRLPRPRPRPWPEPRP | -0.15
17 | RRIRLRPPRLPRPRPRPLCMPRP | -0.467
18 | RRIRYRPPRLPRPRPRPAKLPRP | -0.194
19 | RRIRFRPPRLPRPRPRPLCNPRP | -0.398
20 | RRIRQRPPRLPRPRPRPWTEPRP | 0.0355
21 | RRIRTRPPRLPRPRPRPTVQPRP | 0.0928
22 | RRIRWRPPRLPRPRPRPQGTPRP | 0.104
23 | RRIRIRPPRLPRPRPRPTIRPRP | -0.995
24 | RRIRIRPPRLPRPRPRPQTEPRP | -0.168
25 | RRIRIRPPRLPRPRPRPRAMPRP | -0.0601

Row | Sequence | shrunken log2 fold change
26 | RRIRIRPPRLPRPRPRPLNCPRP | -0.0654
27 | RRIRFRPPRLPRPRPRPHPSPRP | -0.107
28 | RRIRQRPPRLPRPRPRPQWAPRP | 0.142
29 | RRIRPRPPRLPRPRPRPVRRPRP | 0.418
30 | RRIRYRPPRLPRPRPRPVTVPRP | -0.302
31 | RRIRPRPPRLPRPRPRPSRRPRP | -0.179
32 | RRIRFRPPRLPRPRPRPWDWPRP | 0.149
33 | RRIRERPPRLPRPRPRPVWMPRP | -0.0846
34 | RRIRWRPPRLPRPRPRPWNMPRP | -0.101
35 | RRIRCRPPRLPRPRPRPSQHPRP | -0.114
36 | RRIRMRPPRLPRPRPRPDHQPRP | 0.143
37 | RRIRVRPPRLPRPRPRPDCFPRP | 0.0303
38 | RRIRRRPPRLPRPRPRPTKAPRP | 0.372
39 | RRIRMRPPRLPRPRPRPHPCPRP | 0.046
40 | RRIRQRPPRLPRPRPRPAYDPRP | -0.0146
41 | RRIRWRPPRLPRPRPRPSPWPRP | 0.0588
42 | RRIRSRPPRLPRPRPRPDGCPRP | 0.0344
43 | RRIRSRPPRLPRPRPRPKLAPRP | 0.245
44 | RRIRLRPPRLPRPRPRPQFHPRP | -0.414
45 | RRIRMRPPRLPRPRPRPKFTPRP | 0.313
46 | RRIRNRPPRLPRPRPRPTTSPRP | -0.292
47 | RRIRPRPPRLPRPRPRPPRRPRP | 0.638
48 | RRIRGRPPRLPRPRPRPLLTPRP | 2.34
49 | RRIRSRPPRLPRPRPRPMYKPRP | -1.13
50 | RRIRKRPPRLPRPRPRPVPCPRP | 0.0663

Row | Sequence | shrunken log2 fold change
51 | RRIRPRPPRLPRPRPRPMAKPRP | 0.646
52 | RRIRGRPPRLPRPRPRPNQLPRP | 0.0782
53 | RRIRPRPPRLPRPRPRPCVKPRP | -0.139
54 | RRIRMRPPRLPRPRPRPFCCPRP | 0.534
55 | RRIRRRPPRLPRPRPRPDNSPRP | -0.078
56 | RRIRTRPPRLPRPRPRPQWGPRP | -0.0978
57 | RRIRWRPPRLPRPRPRPHCAPRP | -0.0143
58 | RRIRKRPPRLPRPRPRPDFNPRP | 0.0068
59 | RRIRVRPPRLPRPRPRPDLFPRP | -0.045
60 | RRIRWRPPRLPRPRPRPGSNPRP | 0.227
61 | RRIRSRPPRLPRPRPRPWRRPRP | 0.0927
62 | RRIRSRPPRLPRPRPRPFESPRP | -0.258
63 | RRIRDRPPRLPRPRPRPAPVPRP | 0.49
64 | RRIRGRPPRLPRPRPRPECSPRP | 1.2
65 | RRIRSRPPRLPRPRPRPPKEPRP | 1.07
66 | RRIRQRPPRLPRPRPRPGFRPRP | 0.0901
67 | RRIRMRPPRLPRPRPRPCSMPRP | -0.0341
68 | RRIRFRPPRLPRPRPRPIREPRP | -0.0362
69 | RRIRMRPPRLPRPRPRPDQYPRP | -0.418
70 | RRIRLRPPRLPRPRPRPARYPRP | -0.0839
71 | RRIRQRPPRLPRPRPRPMIVPRP | 0.000655
72 | RRIRNRPPRLPRPRPRPSAIPRP | -0.354
73 | RRIRMRPPRLPRPRPRPTYFPRP | -0.0299
74 | RRIRVRPPRLPRPRPRPKREPRP | 0.225
75 | RRIRDRPPRLPRPRPRPMDSPRP | -0.0175

Row | Sequence | shrunken log2 fold change
76 | RRIRYRPPRLPRPRPRPWDCPRP | -0.00865
77 | RRIRDRPPRLPRPRPRPIYRPRP | -0.175
78 | RRIRLRPPRLPRPRPRPPGLPRP | 0.149
79 | RRIRYRPPRLPRPRPRPQMMPRP | -0.536
80 | RRIRDRPPRLPRPRPRPYELPRP | -0.118
81 | RRIRCRPPRLPRPRPRPTASPRP | 0.266
82 | RRIRTRPPRLPRPRPRPKLTPRP | 0.0272
83 | RRIRKRPPRLPRPRPRPYFEPRP | -0.584
84 | RRIRMRPPRLPRPRPRPHKHPRP | -0.287
85 | RRIRKRPPRLPRPRPRPYVDPRP | -0.24
86 | RRIRDRPPRLPRPRPRPKGEPRP | 0.0647
87 | RRIRHRPPRLPRPRPRPERWPRP | 0.357
88 | RRIRARPPRLPRPRPRPRKMPRP | 0.521
89 | RRIRVRPPRLPRPRPRPNFHPRP | -0.115
90 | RRIRLRPPRLPRPRPRPKQTPRP | 0.0369
91 | RRIRWRPPRLPRPRPRPIHFPRP | -0.357
92 | RRIRERPPRLPRPRPRPAYDPRP | -0.394
93 | RRIRIRPPRLPRPRPRPHQCPRP | -0.331
94 | RRIRRRPPRLPRPRPRPSRYPRP | 1.35
95 | RRIRNRPPRLPRPRPRPECCPRP | 0.517
96 | RRIRIRPPRLPRPRPRPGMDPRP | -0.295
97 | RRIRDRPPRLPRPRPRPARQPRP | 0.212
98 | RRIRYRPPRLPRPRPRPVSLPRP | -0.267
99 | RRIRFRPPRLPRPRPRPYDAPRP | -1.06
100 | RRIRHRPPRLPRPRPRPKFAPRP | 0.00298

Row | Sequence | shrunken log2 fold change
101 | RRIRRRPPRLPRPRPRPKTMPRP | 0.348
102 | RRIRGRPPRLPRPRPRPDMNPRP | 1.35
103 | RRIRTRPPRLPRPRPRPFNMPRP | -0.692
104 | RRIRTRPPRLPRPRPRPKQLPRP | 0.23
105 | RRIRHRPPRLPRPRPRPYAWPRP | -0.0931
106 | RRIRLRPPRLPRPRPRPNVCPRP | -0.0138
107 | RRIRIRPPRLPRPRPRPELHPRP | -0.2
108 | RRIRSRPPRLPRPRPRPNIVPRP | 0.238
109 | RRIRERPPRLPRPRPRPDSMPRP | -0.076
110 | RRIRWRPPRLPRPRPRPKRMPRP | 0.217
111 | RRIRVRPPRLPRPRPRPRWIPRP | -0.0863
112 | RRIRWRPPRLPRPRPRPVRKPRP | 0.167
113 | RRIRGRPPRLPRPRPRPWWAPRP | 0.193
114 | RRIRLRPPRLPRPRPRPTSGPRP | 0.0882
115 | RRIRGRPPRLPRPRPRPQCCPRP | 0.168
116 | RRIRQRPPRLPRPRPRPWYIPRP | -0.0906
117 | RRIRIRPPRLPRPRPRPSCLPRP | -0.998
118 | RRIRIRPPRLPRPRPRPWWEPRP | -0.109
119 | RRIRERPPRLPRPRPRPVQLPRP | -0.329
120 | RRIRGRPPRLPRPRPRPLCMPRP | 0.605
121 | RRIRRRPPRLPRPRPRPGFIPRP | -0.00928
122 | RRIRFRPPRLPRPRPRPQKSPRP | -0.285
123 | RRIRHRPPRLPRPRPRPYITPRP | -1.23
124 | RRIRPRPPRLPRPRPRPGMPPRP | -0.074
125 | RRIRPRPPRLPRPRPRPDFMPRP | -0.309

Reference: the supplement of paper PMC9112550, “Optimization of the antimicrobial peptide Bac7 by deep mutational scanning” (BMC Biology, 2022)
